Paper PMC11960969, “Mdga2 deficiency leads to an aberrant activation of BDNF/TrkB signaling that underlies autism-relevant synaptic and behavioral changes in mice” (PLOS Biology, 2025)

Tests used:
[1] = molecular target: T1, recombinant TrkB protein (full-length human TrkB, His) (human, UniProt Q16620 32-822); experiment: pull-down; purified human TrkB protein incubated with GST-fused MDGA2-L1, MDGA2-L2 or GST and pulled down with Glutathione Sepharose 4B; immunoblot; conditions: both partners purified
T1 construct: TrkB, human, full-length cDNA in the pcDNA6-His vector; also called purified human TrkB protein; human TrkB protein; source: HEK293T, purified (His-tag Protein Purification Kit)
T1 sequence (Q16620 32-822): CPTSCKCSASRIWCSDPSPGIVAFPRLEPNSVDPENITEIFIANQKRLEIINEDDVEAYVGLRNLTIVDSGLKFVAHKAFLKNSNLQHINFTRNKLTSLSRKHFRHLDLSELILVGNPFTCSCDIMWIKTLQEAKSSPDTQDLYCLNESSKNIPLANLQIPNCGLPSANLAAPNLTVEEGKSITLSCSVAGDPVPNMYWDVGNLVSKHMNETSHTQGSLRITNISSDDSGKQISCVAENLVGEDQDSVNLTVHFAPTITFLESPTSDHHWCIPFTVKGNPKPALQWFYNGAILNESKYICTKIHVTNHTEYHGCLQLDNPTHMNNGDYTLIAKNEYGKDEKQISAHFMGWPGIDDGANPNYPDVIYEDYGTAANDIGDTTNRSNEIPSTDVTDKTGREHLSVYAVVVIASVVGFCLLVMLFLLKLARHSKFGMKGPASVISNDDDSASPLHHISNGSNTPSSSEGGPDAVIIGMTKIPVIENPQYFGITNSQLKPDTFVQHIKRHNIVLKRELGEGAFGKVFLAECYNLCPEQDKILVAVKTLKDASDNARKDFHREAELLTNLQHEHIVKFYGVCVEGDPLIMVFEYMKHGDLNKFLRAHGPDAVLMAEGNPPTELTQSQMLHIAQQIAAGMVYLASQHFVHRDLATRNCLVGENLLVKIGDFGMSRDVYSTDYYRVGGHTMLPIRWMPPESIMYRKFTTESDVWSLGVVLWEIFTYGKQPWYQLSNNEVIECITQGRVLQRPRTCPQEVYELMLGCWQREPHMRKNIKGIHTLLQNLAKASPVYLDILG

[2] = molecular target: T1, recombinant TrkB protein (full-length …); experiment: SPR; TrkB immobilised on a Biacore CM5 chip by amine coupling; recombinant MDGA2 protein or MDGA2-P2 peptide flowed over at a series of concentrations; Biacore T100 Evaluation software; conditions: both partners purified

Row | binding result [1] | Kd [2] | Binder
1 | binds | – | NADRSGSKEGFYMYIETSRPRLEGEKARLLSPVFSIAPKNPYGPTNT (domain or fragment, human, UniProt Q7Z553 787-833, looked up, MDGA2, human, residues 787-833 (L2, second segment of the M1 half of the MAM domain); also called GST-tagged L2; source: bacteria, purified (Glutathione Sepharose 4B)) [GST-fused MDGA2-L2 (MDGA2 aa 787-833)]
2 | – | 9.2 nM | KARLLSPVFSIAPKNPYGPTNT (MDGA2, human, residues 812-833 (P2); The methods tell the synthesis only of the biotin-labeled peptide; also called MDGA2-derived peptide; source: synthetic peptide) [MDGA2-P2 peptide (aa 812-833), label not stated]
